What was measured:
[1] = substrate: Brc1ccc2cc[nH]c2c1; assay: Tyrian purple formation by LC-MS; format: biochemical, Methylophaga thalassica; conditions: pH 7.5, 30 °C, 250 μM NADH, 0.6% glucose with GDH recycling, unit μm [sic], meant μM, table title says NADH oxidation, methods say indigo/Tyrian purple formation
Excerpt: Tyrian purple formation by LC-MS on MaFMO

[2] = substrate: c1ccc2[nH]ccc2c1; assay: indigo formation by LC-MS; format: biochemical, Methylophaga thalassica; conditions: pH 7.5, 30 °C, 250 μM NADH, 0.6% glucose with GDH recycling, unit μm [sic], meant μM, table title says NADH oxidation, methods say indigo/Tyrian purple formation
Excerpt: indigo formation by LC-MS on MaFMO

B1: MaFMO (Methylophaga thalassica) (protein)
chain: MATRIAILGAGPSGMAQLRAFQSAQEKGAEIPELVCFEKQADWGGQWNYTWRTGLDENGEPVHSSMYRYLWSNGPKECLEFADYTFDEHFGKPIASYPPREVLWDYIKGRVEKAGVRKYIRFNTAVRHVEFNEDSQTFTVTVQDHTTDTIYSEEFDYVVCCTGHFSTPYVPEFEGFEKFGGRILHAHDFRDALEFKDKTVLLVGSSYSAEDIGSQCYKYGAKKLISCYRTAPMGYKWPENWDERPNLVRVDTENAYFADGSSEKVDAIILCTGYIHHFPFLNDDLRLVTNNRLWPLNLYKGVVWEDNPKFFYIGMQDQWYSFNMFDAQAWYARDVIMGRLPLPSKEEMKADSMAWREKELTLVTAEEMYTYQGDYIQNLIDMTDYPSFDIPATNKTFLEWKHHKKENIMTFRDHSYRSLMTGTMAPKHHTPWIDALDDSLEAYLSDKSEIPVAKEA
notes: synthesized gene, His-tag, E. coli BL21(DE3), Ni-NTA; primers give start MATRIAI, end VAKEA
Km [1]: 303.65 µM
kcat [1]: 0.000521 s⁻¹
kcat/Km [1]: 1.67 M⁻¹ s⁻¹
Km [2]: 242.2 µM
kcat [2]: 0.000246 s⁻¹
kcat/Km [2]: 1 M⁻¹ s⁻¹

From publication PMC9871250, “Identification of an indole biodegradation gene cluster from Providencia rettgeri and its contribution in selectively biosynthesizing Tyrian purple” (Frontiers in Bioengineering and Biotechnology, 2023)
